Laboratory results as given in publication PMC3097263.

Biological target: MqsA (UniProt Q46864 1-131)
Experiment: EMSA

Sequence of MqsA (Q46864 whole entry): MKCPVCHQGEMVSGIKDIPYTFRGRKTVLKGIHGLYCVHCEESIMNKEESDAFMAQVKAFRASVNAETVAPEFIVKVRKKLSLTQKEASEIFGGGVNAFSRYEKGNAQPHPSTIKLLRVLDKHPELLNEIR

B1: PrpoS 25-mer (dsDNA)
DNA 1: TGGTCAGACCTTGCAGGTGGGTAAT
DNA 2: ATTACCCACCTGCAAGGTCTGACCA
  binding result: binds
